These results are taken from paper PMC11153131.

The experiment deals with recombinant LDLR protein, extracellular domain, immobilised on the QCM chip (human) (UniProt P01130). The experiment is described as follows: quartz crystal microbalance (QCM).

In the case of “GP38, a secreted CCHFV glycoprotein (from UniProt Q8JSZ3 248-519) (natural protein)”, the dissociation constant (Kd) came out at 180 nM.

For the substance Human Fc-tagged CCHFV Gc (Fc fusion), the dissociation constant Kd came to 3.3 nM, the koff is 5.9e-05 s⁻¹ and the association rate constant (kon) was 13000 M⁻¹ s⁻¹.

In the case of “unlabelled LDL from human plasma (complex)”, the Kd is 3 nM, the koff was found to be 0.00112 s⁻¹ and the kon stood at 255000 M⁻¹ s⁻¹.
